Consider 1 molecule from doi:10.1101/2020.02.02.931204, “Fast Transport of RNA Granules by Direct Interactions with KIF5A/KLC1 Motors Prevents Axon Degeneration” (bioRxiv, 2020).

For the assay, the target named is T1, KLC1 (TPR1-6) fragment, human KNS2 residues 205-501 (human, UniProt Q07866 205-501).
T1 construct: KLC1 (KNS2), human, residues 205-501 (TPR1-6), in the pET28MHL vector; No removal of the tag is described; also called purified human KLC1; source: E. coli BL21 (DE3), purified (Ni-NTA, Superdex-200 gel filtration)
Briefly: ITC; KLC1 (TPR1-6) at 20μM in the cell, SFPQ peptide at 200μM in the syringe, 30 injections of 4μL; 20mM HEPES pH 7.5, 150mM NaCl, 0.5mM TCEP, 2% DMSO, 25°C; single site model. To be noted: both partners purified.

T1 sequence (Q07866 205-501): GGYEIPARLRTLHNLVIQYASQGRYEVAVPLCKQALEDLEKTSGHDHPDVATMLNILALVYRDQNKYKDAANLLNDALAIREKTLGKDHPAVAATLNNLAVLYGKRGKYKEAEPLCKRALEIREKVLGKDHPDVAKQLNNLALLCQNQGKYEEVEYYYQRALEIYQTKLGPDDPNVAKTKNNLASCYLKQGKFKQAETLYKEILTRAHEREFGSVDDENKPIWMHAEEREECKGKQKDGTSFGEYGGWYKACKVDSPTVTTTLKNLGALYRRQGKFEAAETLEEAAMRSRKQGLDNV

B1: SFPQ WT peptide spanning the Y-acidic motif (peptide)
peptide: ESEMEDAYHEHQANLLR
notes: SFPQ, human, stretch of the coiled coil domain with the Y-acidic motif; the underlined Y is Y527; also called long SFPQ peptide; WT SFPQ; source: synthetic peptide (KE BioChem)
As to B1, the Kd is 3.8 ± 2.3 µM and the “stoichiometry N” value was 1.
